# Assay: soluble on expression in E. coli; label from the status in PepcDB or PDB records
row,Sequence,soluble on expression in E. coli
1,MKIGLIGAGVVGRAIATLAVRAGHQVMLSNSRGPHTLFSLRAAVGCAIGTVDEAAAFGDIGVVAVPLAAYRAVPAAALAGKVVIDTNNYYPERDGAIAELDDKRTTTSELLARHLPASRIVKAFNAITMTDLDRDGRPAGSPNRRALPVAGDDAKGKAIAIALLDAFGFDALDAGPLSQGWRFERGTPAYCVALTRDALEKTLAATTRLEHHHHHH,not soluble
2,ASASYYEQYHSLNEIYSWIEFITERHPDMLTKIHIGSSFEKYPLYVLKVSGKEQAAKNAIWIDCGIHAREWISPAFCLWFIGHITQFYGIIGQYTNLLRLVDFYVMPVVNVDGYDYSWKKNRMWRKNRSFYANNHCIGTDLNRNFASKHWCEEGASSSSCSETYCGLYPESEPEVKAVASFLRRNINQIKAYISMHSYSQHIVFPYSYTRSKSKDHEELSLVASEAVRAIEKTSKNTRYTHGHGSETLYLAPGGGDDWIYDLGIKYSFTIELRDTGTYGFLLPERYIKPTCREAFAAVSKIAWHVIRNV,soluble
3,MGSDKIHHHHHHMVKIMQYINKSKEEFLSEIYRIVAKIRLELELTTSEITISDFEFKMDSENSKNLILMIYTPTRTDKSLLIGPGGWVVGKLREKLNGSFKENLIIRVESYIDRKKELDAIENSISHLREKGLDISSKKDALVIIQCEYDLSSIDFINEYFNPIFITFDLGTALLPHKNRNRIEQVFKDKNLKYEFLSPYSLNGEQITDAISKNPCETICNNLISEMVNYAKNKNIEIVLFNHLNKDYEFRNGIHILNFLKMFPIKLNSLIHKGRSLDCPLLIQSCKRNKITKTFKIKQIVSGVYSGLVEPTEGAEEIIKYLK,not soluble
4,GSFLLPKLTSKKEVDQAIKSTAEKVLVLRFGRDEDPVCLQLDDILSKTSSDLSKMAAIYLVDVDQTAVYTQYFDISYIPSTVFFFNGQHMKVDYGSPDHTKFVGSFKTKQDFIDLIEVIYRGAMRGKLIVQSPIDPKNIPKYDLLYQDI,soluble
5,KTMLKIKMAEDAEMIDEVVVTALGIKREEKALGYAVQKVGGSKLSTVKPVNIATSLTGKVAGLNVTNSTEFNTAPTLKLRGETPLLVVDGVPYSNISLNDIAADDIESVDVLKGATASALYGARGGSGAIMVTTKKGSQEG,not soluble
6,MEKKTANDVVTLARAQDRLTTLEYIEAIFEDFLEFHGDRYFADDLAVVGGVATLQGKPVTVVGIQKGRNLPENIERNFGSPNPEGYRKALRLMKQAEKFNRPVITFVNTAGAYCGIGAEERGEGEAIAQNLLEMSDLKVPIISVIIGEGGSGGALALAVADEVWMLEHTIYAVLSPEGFASILWKDGSRAKEAAELMKITATELKELAIVDKVIPEVMNGQPLEQAKINRMLQKAFISKLTELAKLDTETLLEKRYQRFRKY,not soluble
7,MRLNLRQLQIFCAITRFGSTTSAGNALALSQSATSAALNELEGALGTRLFDRVGKRLVLNDSGQSLLPRAMKMLENAQQIEDSFLLPDTTLNARLRIGSSSTIGNYELPSIVGALRESAPLLRVDVDIGNSALIARKVARFEIVMGLIEAPCHLPELIAEPWSVDEMVIVAGINHPLARQKQVSLGELQDAEWLLREPGSGTREEVEHLLLRHLHDLQDLREIGSSEAIKRTLAQGIGISCLSRRVVADLLASGQLKALASPLPPLNRRFFMIRHRDKFISPSLERFREACRQATDQAATLRHGLSHNASPTSSTTP,not soluble
8,MSSPTSLEEDGDIKLKTRFQGQVVVLYARPPLILDDFFALLKDACKQHKKQDITVKWIDEDGDPISIDSQMELDEAVRCLNSSQEAELNIHVFVGKPELPGLPCQGEDKTVYRRGARRWKKIYLYNGHRFQAKRLNRRIQCFICHDYIWGIGRQGFRCVDCRLCVHKKCHRHVRTHCGQALQGPNIIPMAPASGSLKGARSNTSSSTTRSGGGIDNGAFHEHEIESPGSTSHDASRAMNGNGSSKWAVSLNDFRLLTVIGRGSYAKVVQAEHVSTRQIYAIKIIKKEMFNEDEDIDWVQTEKSVFEAASNYPFLVGLHSCFQTESRLFFVIEFVPGGDLMFHMQQQRKLPEEHARFYSGEIILALHFLHSRGIIYRDLKLDNVLIDAEGHIKLTDYGMCKENIKDGDLTSTFCGTPNYIAPEILRGDEYGFSVDWWALGVLMFEMMAGRSPFDIVGMQNSEENTEDYLFQIILERQIRIPRSLSVRASGILKGFLNKDPTERLGCKLDINEGLRDMKEHQFFRGFIDWEALEQKAVAPPYHPAVESDRDLTHFDHQFTDELPQLSPDNPDVIARIDQSEFDGFEYVNPLQMSREDSV,not soluble
9,MAENFVVVDGGVVAPKGFKANGHKDRKYGAALIYSEADAVAAGVFTTNKVYAHPVALSKDTLVNNNVFRAIVANSGNANCFTKGGMEDAELLVKKAAELLKIPENQVLSASTGVIGRKMPMDIISLEVERAFENITMESSNENASKAIMTTDAFPKTVAVEFEVNGKSVRIGGIAKGAGMIAPNMLHATMLGFITTDIEISKEDLTNSLQKATDESFNNAVVDGDMSTNDTVYVLANAQSGVKYTDCKEEFDHALTYVSKELAKMIVSDGEGAKKLIEATVFGAETKEDAKKASMSIVRSLLLKTAVFGADPNWGRIAAAVGYSGAEMDMNNFDIIISDISSEKQAILVKAGEQIADCGTPELKLAEEIMKEDKIKIIVDLKMGSFENTAFGCDLGYDYVKINSEYTTLEHHHHHH,not soluble
10,MRRLVLLLALCFSCSFAQYGLYGSGYNGYGGYGSGYGTGYGMGYGMGYPMNPYMNQVYGYGSNPMMSGGGGMYGAGGCMDLSPQCSVWASTGQCSTNPMMMRQTCAMSCGTCSTGVGALGSMGSYNPFGGYGGMGYPQAGLLDPLAQFIGRSIYETGILRQPTPSSSSKSIGILTKAKSEQLPSR,not soluble
11,MESPNMNQPKINSTAGCALPPPNEMILKWAAERPNEVYLKQIINRQFVEFTYAEVADQALKLVSALRGLGIQPGDKVALVSKNCAE,not soluble
12,MGSDKIHHHHHHMPARIQPTARQVRLGAELRKLRDAAGLTSRQAAALLGTNPAQMSQIEAGNAGVSGERVRKLGVQYASADMELVDALVEMATDRTRGWWEEYRDVLPPVFQDLAELEHHATFMRVVGTVHVPGLLQTQEYARAVFAYVVPELPVDELDLRVRHRMRRKLVLSERTVPYEAVIHESVLRTRVADRRVAVAQLDELLSQSERPNVSLRVIPFGVDGFAGAGAMMLYAGGRVPALDTVQRDAPYGSVFLDASAQLLAMRTLFRRVESAALPPAKSRDYIHRLTKEL,not soluble
13,NEVDDMDTSDTQWGWFYLAECGKWHMFQPDTNSQCSVSSEDIEKSFKTNPCGSISFTTSKFSYKIDFAEMKQMNLTTGKQRLIKRAPFS,soluble
14,MGSDKIHHHHHHMTQPQMIHPGETPEQHAAFQARIARGEKIEPGDWMPAEYRRQLIRMISQHAHSEVVGMLPEGEWITRAPTLKRKTILIAKVQDEAGHGQYLYHAAETLGVTREEMLDALLSGKAKYSSIFNYPSLTWADVGMIGWLVDGAAIKNQTMLAGCSYGPYSRAMVRICSEETFHHKQGKEMIVAYAQGTPEQKQMAQDALNRWWWPALMMLGPHDADSPNTGALVQWGIKLKTNDEVRQEFINEHVPELLEAGLTIPDPDLHQDEQGNWIHGPINWDEFWAVVKGQQGLHRERLGTRQQAHEEGAWVREAVQAYAARQLGQAAD,not soluble
15,MNNENMLSDNSTQTSQINETIDQPIIYILDTNILLHEPFAFLSFKEHDVVVPMTVLEELDSIKDRRKDVSRDARVAIRALEDTLRDASPEQVLAGVKLPQNDDQHPSGSLAIINDYALEKTAHTLSFNENDNRIINAALHIQKKTPNKKIVLVTKDINMRLKAKGAGLAHVEDYRTDQLIDDIQFLTKGYHKFEGDFWQQIQSVDSETEGRNTTHYVSRETVPSTYINEYLLDDSGTFAGKVTGWDDDKLAILDLGRERLLAKNAWGIHPKNIYQGMAMDALLDPTIDLVILTGPAGSGKTLLALASALEQVIERGLYDKIIVTRSTPEIAESIGFLPGTEEEKMAPWLAAITDSLEVLHQQDESMHGSLNYIMDKANIQFKSVNFMRGRSIQNALVLLDECQNLTAAQLKTIITRCGEGTKLVCSGNLAQIDSNYLTAVTSGLTYIVERFKDFPGSATVNLNGVVRSRLASFAEENL,soluble
16,MSLRAIGLSNQVQHLKETVIAVEKKSKHKKTDDSLDISRIQYYMNNFVYYYINYSQDTADQRKTELENYYSFSTASMTDDVRKSRTLQTQRLISVEKEKDYYIALMRIGYEVDKKSYQMNLAVPFQMQRGLLAIVSQPYTVAEDLYLGKSKAFEKKTLDQVKELSKEQVSSIQKFLPVFFNKYALINKTDLKLLMKTPELMGKGFKVSELDLNNAIYYQEKKHQVVQLSVTFEDLVTGGTRSENFTLYLFKADNGWYVEEMYHYFKEGHHHHHH,soluble
17,MVQVGAAAINRVDVAVIGGGIAGVAIAEYVARHTNLSVQLLEQNSHLGGDSSGKLEGWFHTGALYSGQDDGQTFFNCVNGVEDLLNHYSHYFAGRCNLTLEQFDHGYRPTVTGAGWFDPNPVYLIHPQRHSPEMLQSGLKGDRVQLEMQLKRVLGRLEMAYGQQFNWRSPTGNGAVAPDYDHLESYEQRSCSLLGQSEKISHYCQQFDLSHGVKPSDYALLKSLDCAMDTQGILQDLTASALAHGTAIATGINLEQINVDRYGPVRVQSIFYRDCQGQQHYLKAKAFIFAVGAGFERILPTLQVRAKLKQSRSTMVVAYPAISSHNFVRMSTKNSYHFNHFFQRANIPDSSEFLNYSMLANSGYVSNENDYLASGEIELLLDTAARYFSEENLYQRQLWSYDCVKTEFISDDAQKRRYSYWIEVNPQSNYLCVLPGKFSFFPTVAVQTLKQLKTILPTEEVDRSHRDYSAHYHQAQALVASPYPHQLLASYWKNNANSLEHHHHHH,soluble
18,MGSDKIHHHHHHMKTVLDVKNLSVDFAQDGRIVHAVRGVSFHVGKGETVALVGESGSGKSVTALSSVDLLPPSAQLNGSITYNGEQMIGASEAALRRVRGNDISFIFQEPMTSLNPLHTLERQITESLTLHQGLRGQAARDRIIQLLTKVGIRDPETRLGAYPHQLSGGQRQRVMIAMALANGPELLIADEPTTALDVTIQAQILDLLAELKRRERMSLLFITHDLAIVRRIADRVCVMQGGEIVEQGPTKTIFDNPQHPYTQKLLGAEPSGRPDPVPEDAKEILTTDKLRIWFPIQRGLLRRTVGHVKAVNEATLSVRQGETLGVVGESGSGKTTLALAIMRLIRSEGPIDFMDQHIPSLGKTELRTLRRDIQIVFQDPFGSLSPRMTIEQIVAEGLTVQGVNSTGRRRRVSEILEEVGLDPAMMHRYPHEFSGGQRQRIAIARAMILRPKLVVLDEPTSALDMTVQVQIVDLLRRLQRDHKLAFLFISHDLKVVRALSHKVMVMKQGDVVEAGRTEDLFANPRTTYTRELMKAAFGDASAA,not soluble
19,GQKESQTGKGMKIVTSFYPIYAMVKEVSGDLNDVRMIQSSSGIHSFEPSANDIAAIYDADVFVYHSHTLESWAGSLDPNLKKSKVKVLEASEGMTLERVPGLEDVEAGDGVDEKTLYDPHTWLDPEKAGEEAQIIADKLSEVDSEHKETYQKNAQAFIKKAQELTKKFQPKFEKATQKTFVTQHTAFSYLAKRFGLNQLGIAGISPEQEPSPRQLTEIQEFVKTYKVKTIFTESNASSKVAETLVKSTGVGLKTLNPLESDPQNDKTYLENLEENMSILAEELK,soluble
20,GMPTLEMPVAAVLDSTVGSSEALPDFTSDRYKDAYSRINAIVIEGEQEAHDNYIAIGTLLPDHVEELKRLAKMEMRHKKGFTACGKNLGVEADMDFAREFFAPLRDNFQTALGQGKTPTCLLIQALLIEAFAISAYHTYIPVSDPFARKITEGVVKDEYTHLNYGEAWLKANLESCREELLEANRENLPLIRRMLDQVAGDAAVLQMDKEDLIEDFLIAYQESLTEIGFNTREITRMAAAALVS,soluble

# From the DeepSol protein solubility set
